Results as given in patent US20220177594A1 (ZOETIS SERVICES, published 2022).
Read-outs that look alike come from different tables or passages of the source.

T1: canine OSMR on canine cells (canine, UniProt A0A8I3MI11 28-967)
T1 sequence: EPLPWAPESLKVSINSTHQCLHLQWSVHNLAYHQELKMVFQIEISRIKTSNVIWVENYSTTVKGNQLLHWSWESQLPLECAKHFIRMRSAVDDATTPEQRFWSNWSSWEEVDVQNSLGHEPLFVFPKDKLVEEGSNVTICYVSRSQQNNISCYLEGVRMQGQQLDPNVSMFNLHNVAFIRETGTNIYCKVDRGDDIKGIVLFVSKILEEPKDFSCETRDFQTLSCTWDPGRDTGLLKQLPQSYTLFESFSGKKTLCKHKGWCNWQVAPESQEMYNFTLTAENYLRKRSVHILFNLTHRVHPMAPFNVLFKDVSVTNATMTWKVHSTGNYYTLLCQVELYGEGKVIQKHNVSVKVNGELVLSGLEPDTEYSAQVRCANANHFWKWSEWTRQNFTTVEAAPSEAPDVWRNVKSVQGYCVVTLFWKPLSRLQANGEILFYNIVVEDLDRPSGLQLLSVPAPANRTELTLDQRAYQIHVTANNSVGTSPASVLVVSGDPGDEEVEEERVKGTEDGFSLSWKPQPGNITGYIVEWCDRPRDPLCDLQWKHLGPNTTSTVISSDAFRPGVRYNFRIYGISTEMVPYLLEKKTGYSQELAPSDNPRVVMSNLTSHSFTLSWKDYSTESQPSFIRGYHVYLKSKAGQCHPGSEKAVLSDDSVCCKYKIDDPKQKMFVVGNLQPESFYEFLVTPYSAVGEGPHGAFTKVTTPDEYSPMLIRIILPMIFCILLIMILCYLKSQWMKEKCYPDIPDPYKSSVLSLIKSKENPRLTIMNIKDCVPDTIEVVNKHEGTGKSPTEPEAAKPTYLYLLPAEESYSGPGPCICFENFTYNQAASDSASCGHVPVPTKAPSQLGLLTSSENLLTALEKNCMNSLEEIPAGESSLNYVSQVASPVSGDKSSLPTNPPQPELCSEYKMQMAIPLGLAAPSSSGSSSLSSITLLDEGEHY

T2: feline OSMR on feline Fcwf-4 cells (feline, UniProt A0ABI8A843 28-960)
T2 sequence: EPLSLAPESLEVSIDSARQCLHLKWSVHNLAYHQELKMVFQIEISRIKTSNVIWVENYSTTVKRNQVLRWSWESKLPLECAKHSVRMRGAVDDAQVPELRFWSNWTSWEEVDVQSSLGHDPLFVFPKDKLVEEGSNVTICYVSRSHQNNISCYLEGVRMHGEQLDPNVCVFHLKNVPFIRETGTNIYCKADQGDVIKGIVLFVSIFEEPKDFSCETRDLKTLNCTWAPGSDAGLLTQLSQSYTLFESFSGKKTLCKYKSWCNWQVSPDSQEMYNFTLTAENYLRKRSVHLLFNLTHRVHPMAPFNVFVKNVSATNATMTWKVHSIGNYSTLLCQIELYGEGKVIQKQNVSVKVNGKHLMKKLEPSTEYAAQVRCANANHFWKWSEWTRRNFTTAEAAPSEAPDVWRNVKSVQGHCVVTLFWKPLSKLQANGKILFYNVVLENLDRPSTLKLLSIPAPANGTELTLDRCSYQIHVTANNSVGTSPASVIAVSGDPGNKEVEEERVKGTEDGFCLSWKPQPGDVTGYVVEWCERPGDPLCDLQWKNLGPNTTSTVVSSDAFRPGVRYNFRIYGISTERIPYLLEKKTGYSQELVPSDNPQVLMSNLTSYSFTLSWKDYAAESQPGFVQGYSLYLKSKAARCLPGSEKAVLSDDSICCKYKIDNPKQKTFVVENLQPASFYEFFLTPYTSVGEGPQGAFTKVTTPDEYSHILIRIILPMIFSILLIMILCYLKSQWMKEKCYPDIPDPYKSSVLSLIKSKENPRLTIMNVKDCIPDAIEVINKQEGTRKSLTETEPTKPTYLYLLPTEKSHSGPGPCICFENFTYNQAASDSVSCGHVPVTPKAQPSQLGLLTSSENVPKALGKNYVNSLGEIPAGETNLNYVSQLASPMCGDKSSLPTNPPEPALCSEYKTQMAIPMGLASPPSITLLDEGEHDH

T3: Human_OSMR (human, UniProt Q99650 28-739)
T3 construct: Bought protein; also called hOSMR
T3 sequence: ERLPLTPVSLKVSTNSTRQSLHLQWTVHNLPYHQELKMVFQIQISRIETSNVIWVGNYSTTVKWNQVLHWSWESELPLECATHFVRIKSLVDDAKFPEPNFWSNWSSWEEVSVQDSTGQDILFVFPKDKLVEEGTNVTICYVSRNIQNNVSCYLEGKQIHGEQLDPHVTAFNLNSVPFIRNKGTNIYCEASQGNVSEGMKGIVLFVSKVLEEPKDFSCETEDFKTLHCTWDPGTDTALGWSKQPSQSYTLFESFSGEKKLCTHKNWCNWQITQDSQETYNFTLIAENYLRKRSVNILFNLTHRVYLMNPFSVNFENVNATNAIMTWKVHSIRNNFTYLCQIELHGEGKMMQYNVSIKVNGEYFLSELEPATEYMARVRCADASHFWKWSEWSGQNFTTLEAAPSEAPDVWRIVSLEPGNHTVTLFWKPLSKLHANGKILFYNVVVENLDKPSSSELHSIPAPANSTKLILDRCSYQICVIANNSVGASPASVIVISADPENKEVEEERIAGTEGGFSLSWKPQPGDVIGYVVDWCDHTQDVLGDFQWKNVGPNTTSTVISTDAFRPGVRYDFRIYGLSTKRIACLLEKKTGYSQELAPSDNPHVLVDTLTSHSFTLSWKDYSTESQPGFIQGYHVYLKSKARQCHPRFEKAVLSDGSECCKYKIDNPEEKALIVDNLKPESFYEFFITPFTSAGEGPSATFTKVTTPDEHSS


Tests used:
[1] = target: T1, canine OSMR on canine cells; assay: cell-based or functional assay
[2] = target: T2, feline OSMR on feline Fcwf-4 cells; assay: cell-based or functional assay
[3] = target: T1, canine OSMR on canine cells; assay: cell-based or functional assay; remark: listed apart in the source
[4] = target: T2, feline OSMR on feline Fcwf-4 cells; assay: cell-based or functional assay; remark: listed apart in the source
Human_OSMR [5] = target: T3, Human_OSMR; assay: SPR Biacore, OSMR on chip
Human_OSMR [6] = target: T3, Human_OSMR; assay: SPR Biacore, OSMR on chip; remark: listed apart in the source
Experimental: (§1) The affinity with which candidate mAbs bind canine, feline, and human (SEQ ID NO: 122; Human_OSMR) (R&D Systems, Minneapolis, Minn.) OSMR was determined using surface plasmon resonance (SPR) on a Biacore system (Biacore Life Sciences (GE Healthcare), Uppsala, Sweden). To avoid affinity differences associated with differential surface preparation that can occur when immobilizing antibodies to surfaces; OSMR from each species was directly conjugated to individual surfaces. Immobilization was obtained by amine coupling 5 μg/mL OSMR using N-hydroxysuccinimide (NHS)/1-Ethyl-3-(3-dimethylaminopropyl) carbodiimide (EDC) chemistry. Chips were quenched with ethanolamine and the affinity with which all candidate mAbs bound to the immobilized OSMR was evaluated. All curves were fit to a 1:1 model. […] Results for affinity measurements are described herein.

[7] = target: T4, ANTIBODY EXPRESSION CONTROL; assay: SPR Biacore, expression control
T4 construct: also called mouse anti-canine antibody (capture reagent of the expression control ELISA)
Procedure, shortened: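 Surface plasmon resonance with OSMR amine-coupled at 5 μg/mL via NHS/EDC, ethanolamine-quenched, and candidate mAbs flowed over as analyte. ka, kd and KD derived from 1:1 model fits.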

[8] = target: T1, canine OSMR on canine cells; assay: cell-based or functional assay; remark: listed apart in the source
Human_OSMR [9] = target: T3, Human_OSMR; assay: SPR Biacore
Experimental: as §1
Caninized (canine) and felinized (feline) anti-OSMR antibodies were cloned, expressed, and purified. The sequence of each speciated antibody in Table 6 is described in Example 8. Affinity of these speciated antibodies to canine and feline OSMR was measured using Biacore. Table 5 describes results of these Biacore experiments for speciated antibodies that expressed and bound canine and/or feline OSMR. As indicated in the table, this first round of speciation produced antibodies from the 19F07, 09E09, and 10F07 lineage that expressed and bound to their protein target. For comparison to the mouse and mouse:canine chimeras having the same CDRs as these speciated versions, see Tables 1 and 3 respectively. […] Detailed here are the binding kinetics for antibodies that exemplify this goal.

Binder	% inh of canine IL-31 pSTAT3 signaling, canine DH82 cells [1] [% inh]	IC50, inhibition of canine OSM pSTAT3 signaling, canine DH82 cells [1] [µg/ml]	% inh of feline IL-31 pSTAT3 signaling, feline Fcwf-4 cells [2] [% inh]	IC50, inhibition of canine IL-31 pSTAT3 signaling, canine DH82 cells [3] [µg/ml]	IC50, inhibition of canine OSM pSTAT3 signaling, canine DH82 cells [3] [µg/ml]	IC50, inhibition of canine OSM pSTAT3 signaling, feline Fcwf-4 cells [4] [µg/ml]	IC50, inhibition of feline IL-31 pSTAT3 signaling, feline Fcwf-4 cells [4] [µg/ml]	binding result (Human_OSMR [5])	binding result (Human_OSMR [6])	Kd [7] [nM]	koff [7] [s⁻¹]	kon [7] [M⁻¹ s⁻¹]	IC50, inhibition of canine IL-31 pSTAT3 signaling, canine DH82 cells [8] [µg/ml]	Kd (Human_OSMR [9]) [nM]	koff (Human_OSMR [9]) [s⁻¹]	kon (Human_OSMR [9]) [M⁻¹ s⁻¹]
Mu_19F07 (antibody, V domains shown, Mouse hybridoma IgG) VH: EVKLVESEGGLVQPGSSMKLSCTASGFTFSDYYMAWVRQVPEKGLEWVANINYDGSSTYYLDSLKSRFIISRDNAKNILYLQMSSLKSEDTATYYCARGLTWDFDVWGTGTTVTVSS VL: DIVMTQSHKFMSPSVGDRVSITCKASQDVDTAVAWYQQKPGQSPKLLIYLASTRHTGVPDRFTGSGSGTDFTLTISNVQSEDLADYFCQQYSRFPLTFGAGTKLELK	87	0.27	90	0.07	0.27	0.68	0.42	no binding	–	–	–	–	–	–	–	–
mouse: canine 02D09 chimera (antibody, V domains shown, Mouse variable domains on canine IgG constant regions; also called 02D09 (Mouse:Canine); chimeric 02D09) VH: EVQLVESGGGLVKPGGSLTLSCAASGFTFSDYGMHWLRQAPEKGLEWVAYISSGSRAVFFADTVKGRFTISRDNAKNTLFLQMTSLRSDDTAMYYCARDRYDGRGFAYWGQGTLVTVSA VL: DIVLTQSPATLSVTPGDSVSLSCRASQSISNNLHWYQQTSHESPRLLITYASQSISGIPSRFSGSGSGTDFTLSINSVETEDFGMYFCQQSNSWPLTFGAGTKLELKR	–	–	–	97.7	–	–	–	–	no binding	0.6	9.15e-05	153000	97.7	–	–	–
mouse: canine 09E09 chimera (antibody, V domains shown, Mouse variable domains on canine IgG constant regions; also called 09E09 (Mouse:Canine); mouse:dog chimera 09E09) VH: DVKLVESGEGLVKPGGSLKLSCAASGFTFSSYAMSWVRQTPEKRLEWVAYISSGGDYIYYADTVKGRFTISRDNARNTLYLQMSSLKSEDTAMYYCTRDPITGTFAYWGQGTLVTVSA VL: DLQMTQTTSSLSASLGDRVTISCRASQDINNYLNWYQQKPDGTVKLLIYYTSTLHSGVPSRFSGSGSGTDYSLTISNLEQEDIATYFCQQGNTLPWTFGGGTKLEIKR	–	–	–	31.3	–	–	–	–	no binding	0.0023	8.68e-07	374000	47.5	–	–	–

Second part, the binder after the results:

% inh of canine IL-31 pSTAT3 signaling, canine DH82 cells [1] [% inh]	IC50, inhibition of canine OSM pSTAT3 signaling, canine DH82 cells [1] [µg/ml]	% inh of feline IL-31 pSTAT3 signaling, feline Fcwf-4 cells [2] [% inh]	IC50, inhibition of canine IL-31 pSTAT3 signaling, canine DH82 cells [3] [µg/ml]	IC50, inhibition of canine OSM pSTAT3 signaling, canine DH82 cells [3] [µg/ml]	IC50, inhibition of canine OSM pSTAT3 signaling, feline Fcwf-4 cells [4] [µg/ml]	IC50, inhibition of feline IL-31 pSTAT3 signaling, feline Fcwf-4 cells [4] [µg/ml]	binding result (Human_OSMR [5])	binding result (Human_OSMR [6])	Kd [7] [nM]	koff [7] [s⁻¹]	kon [7] [M⁻¹ s⁻¹]	IC50, inhibition of canine IL-31 pSTAT3 signaling, canine DH82 cells [8] [µg/ml]	Kd (Human_OSMR [9]) [nM]	koff (Human_OSMR [9]) [s⁻¹]	kon (Human_OSMR [9]) [M⁻¹ s⁻¹]	Binder
–	–	–	0.28	0.26	–	–	–	no binding	0.082	2.29e-05	281000	–	–	–	–	mouse: canine 19F07 chimera (antibody, V domains shown, Mouse variable domains on canine IgG constant regions; also called 19F07 (Mouse:Canine); mouse:dog chimera 19F07) VH: EVKLVESEGGLVQPGSSMKLSCTASGFTFSDYYMAWVRQVPEKGLEWVANINYDGSSTYYLDSLKSRFIISRDNAKNILYLQMSSLKSEDTATYYCARGLTWDFDVWGTGTTVTVSS VL: DIVMTQSHKFMSPSVGDRVSITCKASQDVDTAVAWYQQKPGQSPKLLIYLASTRHTGVPDRFTGSGSGTDFTLTISNVQSEDLADYFCQQYSRFPLTFGAGTKLELKR
–	–	–	–	–	–	–	–	–	–	–	–	–	38.1	0.0039	102000	Canine_OSM (ligand, also called cOSM) SCSDKYPELLGQLQKQADFMQHTNTLLDLYIRSQGLDKNGLKEHCRERPGAFPSKDALQRLSRRVFLRTLDTTLGQVLLRLAALEQDIPKAQDLEMLSGVKLNIRGFKNNIHCMAQLLPGSSETTEPTPTSPGASPSPTPTLDTFQRRLEGCRFLHGYHRFMRSVGQVFREWGKSLSRSRR
